Reference: US11814435B2, “Therapeutic antibodies and their uses” (PFIZER INC., priority 2015, dated 2023)

T1: hBCMA (human BCMA) (Homo sapiens, UniProt Q02223)
T1 sequence (Q02223 1-184): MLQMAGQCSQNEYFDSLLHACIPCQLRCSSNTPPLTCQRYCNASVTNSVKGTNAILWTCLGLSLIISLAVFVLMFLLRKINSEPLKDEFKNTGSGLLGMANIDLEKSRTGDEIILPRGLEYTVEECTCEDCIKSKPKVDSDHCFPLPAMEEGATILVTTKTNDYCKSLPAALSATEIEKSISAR


Experiments:
[1] = biological target: T1, hBCMA (human BCMA); assay: Kinetics and affinity of hBCMA/human IgG interactions by SPR (Bio-Rad Proteon XPR36); format: binding; settings: human BCMA, 37° C.
Method in brief: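 Kinetics and affinity came from double-referenced sensorgrams fit to a 1:1 Langmuir model with mass transport. The fits used a five-step kinetic titration of BCMA (0.08-50 nM, 2 min each, then 2 h dissociation) over immobilized IgGs, run at 37° C. or 25° C. in HBS-T+ pH 7.4 containing 1 mg/mL BSA.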

[2] = biological target: Cyno BCMA; assay: Kinetics and affinity of cyno BCMA/human IgG interactions by SPR (Bio-Rad Proteon XPR36); format: binding, cynomolgus; settings: 37° C.

| Kd [1] | ka Human [1] | kd Human [1] | Kd [2] | kd Cyno [2] | Molecule | ka Cyno [2] |
| --- | --- | --- | --- | --- | --- | --- |
| 0.049 nM | 3e+06 M⁻¹ s⁻¹ | 0.000148 s⁻¹ | 0.26 nM | 0.000661 s⁻¹ | A02_Rd4_6 nM_C19: anti-BCMA antibody (antibody, V domains shown) VH: EVQLLESGGGLVQPGGSLRLSCAASGFTFSSYAMNWVRQAPGKGLEWVSAISDSGGSRWYADSVKGRFTISRDNSKNTLYLQMNSLRAEDTAVYYCARYWPMSDWGQGTLVTVSS VL: EIVLTQSPGTLSLSPGERATLSCRASQSVSVLYLAWYQQKPGQAPRLLMYDASIRATGIPDRFSGSGSGTDFTLTISRLEPEDFAVYYCQQYLAWPLTFGQGTKVEIK | 2.54e+06 M⁻¹ s⁻¹ |
| – | 7.26e+06 M⁻¹ s⁻¹ | 0.000443 s⁻¹ | – | 0.00256 s⁻¹ | A02_Rd4_0.6 nM_C26: anti-BCMA antibody (antibody, V domains shown) VH: EVQLLESGGGLVQPGGSLRLSCAASGFTFSSYAMNWVRQAPGKGLEWVSAILMSGGSTYYADSVKGRFTISRDNSKNTLYLQMNSLRAEDTAVYYCARYWPMSLWGQGTLVTVSS VL: EIVLTQSPGTLSLSPGERATLSCGPSQSVSSSYLAWYQQKPGQAPRLLMYDASIRATGIPDRFSGSGSGTDFTLTISRLEPEDFAVYYCQQYQSWPLTFGQGTKVEIK | 2.71e+06 M⁻¹ s⁻¹ |
| – | 4.51e+06 M⁻¹ s⁻¹ | 0.000315 s⁻¹ | – | 0.000898 s⁻¹ | A02_Rd4_6 nM_C10: anti-BCMA antibody (antibody, V domains shown) VH: EVQLLESGGGLVQPGGSLRLSCAASGFTFSSYAMNWVRQAPGKGLEWVSAISDSGGSCWYADSVKGRFTISRDNSKNTLYLQMNSLRAEDTAVYYCARYWPMTPWGQGTLVTVSS VL: EIVLTQSPGTLSLSPGERATLSCRASQSVEMSYLAWYQQKPGQAPRLLMYDASIRATGIPDRFSGSGSGTDFTLTISRLEPEDFAVYYCQQYAHWPLTFGQGTKVEIK | 1.9e+06 M⁻¹ s⁻¹ |
| 0.188 nM | 3.92e+06 M⁻¹ s⁻¹ | 0.000738 s⁻¹ | 5.07 nM | 0.0113 s⁻¹ | A02_Rd4_6 nM_C08: anti-BCMA antibody (antibody, V domains shown) VH: EVQLLESGGGLVQPGGSLRLSCAASGFTFSSYAMNWVRQAPGKGLEWVSAILDSGGSTYYADSVKGRFTISRDNSKNTLYLQMNSLRAEDTAVYYCARYWPMSPWGQGTLVTVSS VL: EIVLTQSPGTLSLSPGERATLSCRASQSVSFLYLAWYQQKPGQAPRLLMYDASIRATGIPDRFSGSGSGTDFTLTISRLEPEDFAVYYCQQYGSWPLTFGQGTKVEIK | 2.23e+06 M⁻¹ s⁻¹ |
| – | 7.47e+06 M⁻¹ s⁻¹ | 0.00348 s⁻¹ | – | 0.000891 s⁻¹ | C01_Rd4_6 nM_C24: anti-BCMA antibody (antibody, V domains shown) VH: EVQLLESGGGLVQPGGSLRLSCAASGFTFSSYPMSWVRQAPGKGLEWVSAIGGSGGSLPYADSVKGRFTISRDNSKNTLYLQMNSLRAEDTAVYYCARYWPMDSWGQGTLVTVSS VL: EIVLTQSPGTLSLSPGERATLSCRASQSVSPEYLAWYQQKPGQAPRLLIYDASSRAPGIPDRFSGSGSGTDFTLTISRLEPEDFAVYYCQQYSVWPLTFGQGTKVEIK | 3.17e+06 M⁻¹ s⁻¹ |
| 0.048 nM | 4.73e+06 M⁻¹ s⁻¹ | 0.000229 s⁻¹ | 0.197 nM | 0.000639 s⁻¹ | A02_Rd4_0.6 nM_C18: anti-BCMA antibody (antibody, V domains shown) VH: EVQLLESGGGLVQPGGSLRLSCAASGFTFSSYAMNWVRQAPGKGLEWVSAVLDSGGSTYYADSVKGRFTISRDNSKNTLYLQMNSLRAEDTAVYYCARYWPMSLWGQGTLVTVSS VL: EIVLTQSPGTLSLSPGERATLSCRASQSVSELYLAWYQQKPGQAPRLLMYDASIRATGIPDRFSGSGSGTDFTLTISRLEPEDFAVYYCQQYFGWPLTFGQGTKVEIK | 3.24e+06 M⁻¹ s⁻¹ |
| 0.135 nM | 4.47e+06 M⁻¹ s⁻¹ | 0.000603 s⁻¹ | 0.381 nM | 0.000831 s⁻¹ | A02_Rd4_6 nM_C04: anti-BCMA antibody (antibody, V domains shown) VH: EVQLLESGGGLVQPGGSLRLSCAASGFTFSSYAMNWVRQAPGKGLEWVSAIMSSGGPLYYADSVKGRFTISRDNSKNTLYLQMNSLRAEDTAVYYCARYWPMALWGQGTLVTVSS VL: EIVLTQSPGTLSLSPGERATLSCRASQSVSALYLAWYQQKPGQAPRLLMYDASIRATGIPDRFSGSGSGTDFTLTISRLEPEDFAVYYCQQYQVWPLTFGQGTKVEIK | 2.18e+06 M⁻¹ s⁻¹ |
| – | 1.48e+06 M⁻¹ s⁻¹ | 0.000189 s⁻¹ | – | 0.000786 s⁻¹ | A02_Rd4_6 nM_C07: anti-BCMA antibody (antibody, V domains shown) VH: EVQLLESGGGLVQPGGSLRLSCAASGFTFSSYAMNWVRQAPGKGLEWVSAIGGSGGSLPYADSVKGRFTISRDNSKNTLYLQMNSLRAEDTAVYYCARYWPMDSWGQGTLVTVSS VL: EIVLTQSPGTLSLSPGERATLSCRASQSVSPYYLAWYQQKPGQAPRLLMYDASIRATGIPDRFSGSGSGTDFTLTISRLEPEDFAVYYCQQYERWPLTFGQGTKVEIK | 691000 M⁻¹ s⁻¹ |
| – | 3.1e+06 M⁻¹ s⁻¹ | 0.000308 s⁻¹ | – | 0.00129 s⁻¹ | A02_Rd4_6 nM_C05: anti-BCMA antibody (antibody, V domains shown) VH: EVQLLESGGGLVQPGGSLRLSCAASGFTFSSYAMNWVRQAPGKGLEWVSAIFASGGSTYYADSVKGRFTISRDNSKNTLYLQMNSLRAEDTAVYYCARYWPMTPWGQGTLVTVSS VL: EIVLTQSPGTLSLSPGERATLSCRASQSVSSSYLAWYQQKPGQAPRLLMYDASIRATGIPDRFSGSGSGTDFTLTISRLEPEDFAVYYCQQYQRWPLTFGQGTKVEIK | 1.36e+06 M⁻¹ s⁻¹ |
| – | 1.16e+07 M⁻¹ s⁻¹ | 0.0692 s⁻¹ | – | 0.0538 s⁻¹ | P5C1_VHVL: anti-BCMA antibody (antibody, V domains shown) VH: EVQLLESGGGLVQPGGSLRLSCAASGFTFSSYPMSWVRQAPGKGLEWVSAIGGSGGSTYYADSVKGRFTISRDNSKNTLYLQMNSLRAEDTAVYYCARYWPMDSWGQGTLVTVSS VL: EIVLTQSPGTLSLSPGERATLSCRASQSVSSTYLAWYQQKPGQAPRLLIYDASSRAPGIPDRFSGSGSGTDFTLTISRLEPEDFAVYYCQQYSTSPLTFGQGTKVEIK | 3.53e+06 M⁻¹ s⁻¹ |
| – | 2.3e+06 M⁻¹ s⁻¹ | 0.000296 s⁻¹ | – | 0.00163 s⁻¹ | A02_Rd4_0.6 nM_C10: anti-BCMA antibody (antibody, V domains shown) VH: EVQLLESGGGLVQPGGSLRLSCAASGFTFSSYAMNWVRQAPGKGLEWVSAISGWGGSLPYADSVKGRFTISRDNSKNTLYLQMNSLRAEDTAVYYCARYWPMDSWGQGTLVTVSS VL: EIVLTQSPGTLSLSPGERATLSCRASQSVSAQYLAWYQQKPGQAPRLLMYDASIRATGIPDRFSGSGSGTDFTLTISRLEPEDFAVYYCQQYQRWPLTFGQGTKVEIK | 883000 M⁻¹ s⁻¹ |
| – | 4.27e+06 M⁻¹ s⁻¹ | 0.000182 s⁻¹ | – | 0.000426 s⁻¹ | A02_Rd4_0.6 nM_C03: anti-BCMA antibody (antibody, V domains shown) VH: EVQLLESGGGLVQPGGSLRLSCAASGFTFSSYAMNWVRQAPGKGLEWVSAISDSGGSKWYADSVKGRFTISRDNSKNTLYLQMNSLRAEDTAVYYCARYWPMSLWGQGTLVTVSS VL: EIVLTQSPGTLSLSPGERATLSCRASQSVSSSYLAWYQQKPGQAPRLLMYDASIRATGIPDRFSGSGSGTDFTLTISRLEPEDFAVYYCQQYFTWPLTFGQGTKVEIK | 2.12e+06 M⁻¹ s⁻¹ |
| – | 8.53e+06 M⁻¹ s⁻¹ | 0.000566 s⁻¹ | – | 0.00128 s⁻¹ | A02_Rd4_0.6 nM_C13: anti-BCMA antibody (antibody, V domains shown) VH: EVQLLESGGGLVQPGGSLRLSCAASGFTFSSYAMNWVRQAPGKGLEWVSAISDSGGYRYYADSVKGRFTISRDNSKNTLYLQMNSLRAEDTAVYYCARYWPMSLWGQGTLVTVSS VL: EIVLTQSPGTLSLSPGERATLSCRASQSVSSSYWAWYQQKPGQAPRLLMYDASIRATGIPDRFSGSGSGTDFTLTISRLEPEDFAVYYCQQYESWPLTFGQGTKVEIK | 2.29e+06 M⁻¹ s⁻¹ |
| – | 1.22e+07 M⁻¹ s⁻¹ | 0.000255 s⁻¹ | – | 0.000414 s⁻¹ | A02_Rd4_6 nM_C23: anti-BCMA antibody (antibody, V domains shown) VH: EVQLLESGGGLVQPGGSLRLSCAASGFTFSSYAMNWVRQAPGKGLEWVSAISDSGGSGWYADSVKGRFTISRDNSKNTLYLQMNSLRAEDTAVYYCARYWPMSLWGQGTLVTVSS VL: EIVLTQSPGTLSLSPGERATLSCRASQSVSVEYLAWYQQKPGQAPRLLMYDASIRATGIPDRFSGSGSGTDFTLTISRLEPEDFAVYYCQQYARWPLTFGQGTKVEIK | 2.63e+06 M⁻¹ s⁻¹ |
| – | 1.5e+07 M⁻¹ s⁻¹ | 0.00136 s⁻¹ | – | 0.00199 s⁻¹ | C01_Rd4_6 nM_C26: anti-BCMA antibody (antibody, V domains shown) VH: EVQLLESGGGLVQPGGSLRLSCAASGFTFSSYPMSWVRQAPGKGLEWVSAIGGSGGSLPYADSVKGRFTISRDNSKNTLYLQMNSLRAEDTAVYYCARYWPMDSWGQGTLVTVSS VL: EIVLTQSPGTLSLSPGERATLSCRASQSVSALYLAWYQQKPGQAPRLLIYDASSRAPGIPDRFSGSGSGTDFTLTISRLEPEDFAVYYCQQYSAWPLTFGQGTKVEIK | 4.75e+06 M⁻¹ s⁻¹ |
